Test results from article PMC4613515.

Biological target: His6–WT cyclin Y (Sf21) (human) (UniProt Q8ND76)
Experiment: co-purification on Ni-NTA–agarose, immunoblot; His6–cyclin Y (WT or S326A) expressed in Sf21 cells and affinity-purified; defined amounts immunoblotted for 14-3-3

Sequence of UniProt Q8ND76 (Q8ND76 whole entry): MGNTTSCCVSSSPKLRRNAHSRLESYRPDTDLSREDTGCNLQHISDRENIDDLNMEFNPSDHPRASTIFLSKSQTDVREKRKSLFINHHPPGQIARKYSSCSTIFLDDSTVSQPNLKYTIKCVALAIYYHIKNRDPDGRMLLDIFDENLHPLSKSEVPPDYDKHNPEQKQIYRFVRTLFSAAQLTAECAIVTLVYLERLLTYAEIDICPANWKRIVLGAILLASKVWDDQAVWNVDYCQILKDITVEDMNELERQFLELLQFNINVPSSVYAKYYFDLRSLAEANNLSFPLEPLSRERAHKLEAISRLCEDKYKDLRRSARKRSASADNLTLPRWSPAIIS

amount of co-purified 14-3-3 against that with COS-1-derived WT cyclin Y: 100 fold less
Substance: 14-3-3 proteins (endogenous in Sf21 cells) (natural protein)
